From patent US7265267 (CROPDESIGN N V, dated 2007) come the findings set out here.

Assay [1] addresses T1, GAL4 DNA-binding domain-CDC2aAt fusion (pGBTCDC2A bait) (Arabidopsis thaliana, UniProt P04386 1-147; P24100 1-294).
T1 construct: Yeast two-hybrid bait; whole CDC2aAt coding region amplified from cDNA and cloned in the EcoRI site of pGBT9
Put plainly: yeast two-hybrid control, growth without histidine. From the text:
(§1) The LDV159 clone was identical to ICK1 (GenBank accession number U94772 as published by Wang in Nature 386 (1997), 451–452). The two other clones were novel and encoded proteins only distantly related to ICK1 (Table 1). The LDV39 gene was 622 bp long, consisting of 423 bp coding region and 199 bp 3' UTR (excluding the poly-A tail). The LDV66 gene was 611 bp long, consisting of 379 bp coding region and 232 bp 3' UTR (excluding the poly-A tail). The specificity of the interaction between LDV39, LDV66, and LDV159 was verified by the retransformation of yeast with pGBTCDC2A and pGADLDV39/pGADLDV66/pGADLDV159. As controls, pGBTCDC2A was cotransformed with a vector containing only the GAL4 activation domain (pGAD424); and the pGADLDV39/pGADLDV66/pGADLDV159 vectors were cotransformed with a plasmid containing only the GAL4 DNA binding domain (pGBT9). Transformants were plated on medium with or without histidine. Only transformants containing both pGBTCDC2A and pGADLDV39, pGADLDV66, ot pGADLDV159 were able to grow in the absence of histidine.

Assay [2] concerns the target T2, GAL4 DNA binding domain alone (pGBT9) (UniProt P04386 1-147).
T2 construct: Negative control bait in the two-hybrid retransformation
Description: yeast two-hybrid control, growth without histidine.
Text: as §1

The target in assay [3] is GAL4 DNA-binding domain-CDC2bAt fusion (pGBTCDC2B) (Arabidopsis thaliana, UniProt P04386 1-147; P25859 1-309). Put plainly: yeast two-hybrid, growth without histidine. On the procedure: (§2) The pGBTCDC2B vector encoding a fusion protein between the C-terminus of the GAL4 DNA-binding domain and CDC2bAt was constructed by cloning the full length coding region of CDC2bAt into the pGBT9 vector. pGBTCDC2B was transformed with pGADLDV66/pGADLDV39/pGADLDV159 in the HF7c yeast and cotransformants were plated on medium with or without histidine. As control, pGBTCDC2A was transformed with pGADLDV66/pGADLDV39/pGADLDV159. In contrast to the transformants containing the pGBTCDC2A vector were cotransformants containing the pGBTCDC2B vector unable to grow in the absence of histidine.

Assay [4] deals with T3, CDC2bAt protein in protein extract of A. thaliana Col-O cell suspension culture (Arabidopsis thaliana, UniProt P25859 1-309).
T3 construct: Endogenous protein in a crude extract
T3 sequence (looked up): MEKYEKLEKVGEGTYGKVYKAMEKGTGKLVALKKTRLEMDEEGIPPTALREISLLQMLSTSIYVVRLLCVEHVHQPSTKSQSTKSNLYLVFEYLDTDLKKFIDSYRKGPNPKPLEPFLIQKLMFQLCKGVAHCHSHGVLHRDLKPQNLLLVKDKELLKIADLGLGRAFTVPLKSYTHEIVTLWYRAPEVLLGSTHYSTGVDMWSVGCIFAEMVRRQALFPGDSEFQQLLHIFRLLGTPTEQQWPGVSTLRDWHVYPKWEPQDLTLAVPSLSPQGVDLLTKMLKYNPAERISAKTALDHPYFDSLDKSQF
Description: pull-down from cell extract on FL66-Sepharose, Western blot. As to the method: The *Arabidopsis thaliana* CKI FL66 Associates Exclusively with CDC2aAt In Vitro Purified recombinant FL66 protein (prepared as described as in previous Example 6 was coupled to CNBr-activated Sepharose 4B (Pharmacia) at a concentration of 5 mg/ml of gel according to the manufacturer's instructions. Protein extracts were prepared from a 2-day-old cell suspension culture of *A. thaliana* Col-O in homogenisation buffer (HB) containing 50 mM Tris-HCl (pH 7.2), 60 mM β-glycerophosphate, 15 mM nitrophenyl phosphate, 15 mM EGTA, 15 mM MgCl_2, 2 mM dithiothreitol, 0.1 mM vanadate, 50 mM NaF, 20 µg/ml leupeptin, 20 µg/ml aprotinin, 20 µg/ml soybean trypsin inhibitor (SBTI), 100 µM benzamidine, 1 mM phenylmethylsulfonylfluoride, and 0.1% Triton X-100. Two-hundred µg protein extract in a total volume of 100 µl HB was loaded on 50 µl 50% (v/v) FL66-Sepharose or control Sepharose beads, and incubated on a rotating wheel for 2 h at 4° C. The unbound proteins were collected for later analysis. The beads-bound fractions were washed 3 times with HB. Beads were resuspended in 30 µl SDS-loading buffer and boiled. The supernatants (beads bound fractions) and 10 µl of the unbound fractions were separated on a 12.5% SDS-PAGE gel and electroblotted on nitrocellulose membrane (Hybond-C^+; Amersham). […]

Assay [5] deals with T1, GAL4 DNA-binding domain-CDC2aAt fusion …. Description: yeast two-hybrid, growth without histidine. On the procedure: as §2

B1: GAL4 activation domain alone (pGAD424) (other, UniProt P04386 768-881, looked up)
chain: ANFNQSGNIADSSLSFTFTNSSNGPNLITTQTNSQALSQPIASSNVHDNFMNNEITASKIDDGNNSKPLSPGWTDQTAYNAFGITTGMFNTTTMDDVYNYLFDDEDTPPNPKKE
notes: Negative control prey in the two-hybrid retransformation
Consider B1, for which, in assay [1], the binding result is reported as “no binding”.

B2: GAL4 activation domain-LDV66 fusion (pGADLDV66) (other, not shown: large carriers)
chain: VNSVPVAQSSNEDECFDNFVSVQVSCGENSLGFESRHSTRESTPCNFVEDMEIMVTPGSSTRSMCRATKEYTREQDNVIPTTSEMEEFFAYAEQQQQRLFMEKYNFDIVNDIPLSGRYEWVQVKP
notes: FL66 = ICK3
Consider B2, for which the binding result in assay [2] and in assay [3] was “no binding” throughout.

B3: GAL4 activation domain-LDV159 fusion (pGADLDV159) (other, Arabidopsis thaliana, UniProt Q67Y93 1-191, looked up, not shown: large carriers)
chain: MVRKYRKAKGIVEAGVSSTYMQLRSRRIVYVRSEKSSSVSVVGDNGVSSSCSGSNEYKKKELIHLEEEDKDGDTETSTYRRGTKRKLFENLREEEKEELSKSMENYSSEFESAVKESLDCCCSGRKTMEETVTAEEEEKAKLMTEMPTESEIEDFFVEAEKQLKEKFKKKYNFDFEKEKPLEGRYEWVKLE
notes: also called ICK1
Turning to B3, in assay [3], the binding result is “no binding”.

B4: Purified recombinant FL66 protein (E. coli, FL66pET21d), starting at methionine 11 (other)
chain: MEVSKATAPSPGVRTRAAKTLALKRLNSSAADSALPNDSSCYLQLRSRRLEKPSSLIEPKQPPRVHRSGIKESGSRSRVDSVNSVPVAQSSNEDECFDNFVSVQVSCGENSLGFESRHSTRESTPCNFVEDMEIMVTPGSSTRSMCRATKEYTREQDNVIPTTSEMEEFFAYAEQQQQRLFMEKYNFDIVNDIPLSGRYEWVQVKP
notes: also called FL66-Sepharose
For B4, the binding result in assay [4] was “no binding”.

B5: GAL4 activation domain-FL66 fusion (pGADFL66), FL66 starting at methionine 11 (other, not shown: large carriers)
chain: MEVSKATAPSPGVRTRAAKTLALKRLNSSAADSALPNDSSCYLQLRSRRLEKPSSLIEPKQPPRVHRSGIKESGSRSRVDSVNSVPVAQSSNEDECFDNFVSVQVSCGENSLGFESRHSTRESTPCNFVEDMEIMVTPGSSTRSMCRATKEYTREQDNVIPTTSEMEEFFAYAEQQQQRLFMEKYNFDIVNDIPLSGRYEWVQVKP
notes: the FL66 clone may not be full length; also called ICK3
With B5, the binding result in assay [3] was “no binding”.

B6: GAL4 activation domain-LDV39 fusion (pGADLDV39) (other, not shown: large carriers)
chain: RRDSPPVEEQCQIEEEDSSVSCCSTSEEKSKRRIEFVDLEENNGDDRETETSWIYDDLNKSEESMNMDSSSVAVEDVESRRRLRKSLHETVKEAELEDFFQVAEKDLRNKLLECSMKYNFDFEKDEPLGGGRYEWVKLNP
notes: FL39 = ICK2 = CKI2
In the case of B6, the binding result in assay [2] and in assay [3] was “no binding” in each case.

B7: GAL4 activation domain-FL39 fusion (pGADFL39) (other, not shown: large carriers)
chain: MAAVRRRERDVVEENGVTTTTVKRRKMEEEVDLVESRIILSPCVQATNRGGIVARNSAGASETSVVIVRRRDSPPVEEQCQIEEEDSSVSCCSTSEEKSKRRIEFVDLEENNGDDRETETSWIYDDLNKSEESMNMDSSSVAVEDVESRRRLRKSLHETVKEAELEDFFQVAEKDLRNKLLECSMKYNFDFEKDEPLGGGRYEWVKLNP
notes: also called ICK2; CKI2
Turning to B7, the binding result in assay [3] is on record as “no binding”; in assay [5] it was “binds”.
